The source of these data is the supplement of paper PMC10567573.

This data set can be described thus: protein stability index of a GFP-peptide fusion (GPS, HEK-293T) (PSI 1-6); higher = more stable.
Where [1] appears, read: treatment: DMSO, c terminus: a fixed tail appended.
Where [2] appears, read: treatment: MLN4924 1 uM, 8 h, c terminus: a fixed tail appended.
The mark [3] stands for this setting: treatment: DMSO, c terminus: native.
Where [4] appears, read: treatment: MLN4924 1 uM, 8 h, c terminus: native.

± gives the standard deviation.
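Further: 24-mer peptide tiles fused after GFP, lentivirally expressed, FACS-sorted into six equal bins by GFP/DsRed ratio, decoded by Illumina sequencing, PSI is the read-weighted mean bin number.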

For the sequence LAEARRLFPGRVSVDLMLGLPAQQ [RSAD1], the protein stability index runs as follows: under setting [1], 2.76 ± 0.25; under setting [2], 2.7 ± 0.31. With LAFFPFLHRLFREKSLDQLKSISA [PHTF1], the protein stability index by setting is: under setting [1], 2.46 ± 0.3; under setting [2], 2.26 ± 0.35. As to LAIFKSGGIPALVKMLGSPVDSVL [CTNNB1], the protein stability index runs as follows: under setting [1], 2.28 ± 0.36; under setting [2], 2.14 ± 0.35. Turning to LAKEIRVKAEPFIKWLKEAEEESS [EIF5], the protein stability index runs as follows: under setting [1], 3.33 ± 0.2; under setting [2], 3.9 ± 0.52.

Take LALDSGASLLHLAVEAGQEECAKW [RIPK4]: the protein stability index is 3.73 ± 1.2 under setting [1] and 3.46 ± 0.4 under setting [2]. As to LAPGPAPTRCLPGHKEEEDGEGAG [ESRRA], the protein stability index by setting is: under setting [1], 5.45 ± 0.16; under setting [2], 5.48 ± 0.081. Take LAVFARCLAGCEGAHEQVDFKDFY [P3H4]: the protein stability index turned out to be 1.94 ± 0.45 under setting [1] and 2.02 ± 0.31 under setting [2]. As to LDAHYHVKISDFGLAKCNGLSHSH [RIPK4], the protein stability index reads like this: under setting [1], 2.25 ± 0.31; under setting [2], 2.48 ± 0.15. The corresponding values for LDNTKFRSHEGETAYIRVKVDGPR [SRSF1] are 3.73 ± 0.34 and 3.49 ± 0.32. Sequence LDPMKNVTCENGLPAVVSCVPGQV [LOXL2] had a protein stability index under setting [2] of 4.36 ± 0.06. In the case of LEELTKLQNNCTSSITRQKKRLQE [TMEM120A], the protein stability index runs as follows: under setting [1], 4.81 ± 0.3; under setting [2], 4.76 ± 0.31. LEIELQSQLSMKAGLENTVAETEC [KRT13] showed a protein stability index under setting [1] of 5.02 ± 0.43 and a protein stability index under setting [2] of 5.03 ± 0.11. LETSGNPNGRYGSGYLLASTPESE [SLC6A17]: the protein stability index under setting [1] stood at 4.93 ± 0.14 and the protein stability index under setting [2] is 4.91 ± 0.26. The corresponding values for LFGGFADFGSAAASGSFPSQVTAT [CLINT1] are 2.71 ± 0.37 and 3.02 ± 0.33.

As to LFHRLDEDWDSALFAELGYFTDTD [ATF6], the protein stability index by setting is: under setting [1], 2.91 ± 0.48; under setting [2], 3.02 ± 0.26. Turning to LFSSHPPLGGGVGGQDGLGAPKDQ [KLHL14], the protein stability index turned out to be 4.89 ± 0.55 under setting [1] and 4.81 ± 0.049 under setting [2]. LFVLFMFFGMAFNFIVNDSRKKPI [SOAT1] yielded a protein stability index under setting [1] of 3.19 ± 0.45 and a protein stability index under setting [2] of 2.99 ± 0.24. The corresponding values for LGEVAYHDYHGILVDEEEKVLIQK [ADD1] are 4.9 ± 0.15 and 4.74 ± 0.61.

On to LGLNAAFWFFALTSLRLVFLLAFG [RETREG3], for which the protein stability index was found to be 3.06 ± 0.41 under setting [1] and 3.35 ± 1.4 under setting [2].

As for LGRSIVSSPQGKSGPEAARAGGWV [PKD2L1], the protein stability index runs as follows: under setting [1], 3.45 ± 0.2; under setting [2], 3.83 ± 0.36. For LHPLLSGRLGRWLRSTRFSGSLDR [PCDHGC5], the protein stability index was 2.46 ± 0.23 under setting [1] and 2.45 ± 0.54 under setting [2]. As for LHRTEGELQKIVQAGDKDLDGQLD [SLC25A25], the protein stability index stood at 5.58 ± 0.21 under setting [1] and 5.55 ± 0.31 under setting [2]. Turning to LHSACGLSKDHQEVETEGPESADT [TOR1AIP2], the protein stability index is 5.36 ± 0.26 under setting [1] and 5.53 ± 0.16 under setting [2]. Take LIDRSGRHFGTILNYLRDGSVPLP [KCTD13]: the protein stability index reads like this: under setting [1], 2.37 ± 0.28; under setting [2], 2.46 ± 0.32. As for LINYQDDAELATRAIPELTKLLND [CTNNB1], the protein stability index runs as follows: under setting [1], 3.61 ± 0.37; under setting [2], 3.59 ± 0.31. Take LISNASDALDKIRYESLTDPSKLD [HSP90AB1]: the protein stability index amounted to 3.75 ± 0.34 under setting [1] and 3.85 ± 0.41 under setting [2]. Regarding LIVGRIAIGVSISLSSIATCVYIA [SLC2A12], the protein stability index under setting [1] worked out at 3.09 ± 0.45 and the protein stability index under setting [2] amounted to 3.01 ± 0.39. Regarding LKDGYRLDEIPDDEDLDLIPPKSV [FAM219A], the protein stability index runs as follows: under setting [1], 5.16 ± 0.15; under setting [2], 5.3 ± 0.13.

As to LKDTYASLGKTNVKDDELDAMLKE [MYL5], the protein stability index reads like this: under setting [1], 5.28 ± 0.21; under setting [2], 5.35 ± 0.2. Take LKIPQVRGMDLSWESRTGDQYSYS [LCOR]: the protein stability index by setting is: under setting [1], 2.87 ± 0.25; under setting [2], 2.86 ± 0.31. Turning to LKKAKVQVERMREVNSRCYQPEPF [FBXO34], the protein stability index reads like this: under setting [1], 2.79 ± 0.61; under setting [2], 2.84 ± 0.16. As for LKLANHQRPVSRQVTCLRTQVLED [TRAF3IP2], the protein stability index came out at 3.49 ± 0.35 under setting [1] and 3.58 ± 0.27 under setting [2]. With LKRAFEAANLPALVLKIMSGTFAP [NEK8], the protein stability index runs as follows: under setting [1], 2.57 ± 0.59; under setting [2], 2.71 ± 0.57. In the case of LKSSILIAMAVYTYLRLIVDHHGT [INTS3], the protein stability index by setting is: under setting [1], 3.51 ± 0.21; under setting [2], 3.11 ± 0.27. For LLADLKKCGDLECEALINRVSAMR [MIA2], the protein stability index came out at 2.53 ± 0.23 under setting [1] and 2.55 ± 0.32 under setting [2]. Take LLAEKEEKLQKEQKELQDVGQSLR [SASS6]: the protein stability index by setting is: under setting [1], 5.45 ± 0.23; under setting [2], 5.35 ± 0.28. For the sequence LLAIQFLEFFYGIATATEIAYYSY [SLC19A2], the protein stability index under setting [1] was found to be 2.92 ± 1.3 and the protein stability index under setting [2] amounted to 3.13 ± 0.23. On the same counts, the results for LLERQVEMTPEKFSVLMEKLCKKG [FANCE] are 3.03 ± 0.26 and 3.36 ± 0.19. With LLIFGKELSAIGSDTTPLPSWAAL [SNX8], the protein stability index reads like this: under setting [1], 2.42 ± 0.37; under setting [2], 2.13 ± 0.28. Take LLKIHEVSTVSHADADCFVCVFLS [CASP6]: the protein stability index worked out at 2.4 ± 0.17 under setting [1] and 2.4 ± 0.41 under setting [2]. LLPRQPLPLGIKVYEDETKVVHAV [PALM] returned a protein stability index under setting [1] of 3.47 ± 0.28 and a protein stability index under setting [2] of 3.48 ± 0.12. The corresponding values for LLSTSLDAKDELEERLERCMSIVT [INTS3] are 3.38 ± 0.22 and 3.51 ± 0.37. LLYDDLYDDDIDDEDEEEEDADCY [UBE2R2]: the protein stability index is, setting by setting: under setting [1], 4.26 ± 0.18; under setting [2], 4.41 ± 0.27. With LNVRGGKPDDITVLLSIVAEYTD [PPTC7], the protein stability index reads like this: under setting [3], 3.45 ± 0.95; under setting [4], 2.5 ± 0.44. As for LPAQPNRKPGMSSTARRSRAASSQ [CHMP4C], the protein stability index under setting [1] is 4.88 ± 0.16 and the protein stability index under setting [2] amounted to 4.87 ± 0.16.

LPLALYTATFAVHFMVLSKSGPGD [POMT2] returned a protein stability index under setting [1] of 3.34 ± 0.33 and a protein stability index under setting [2] of 3.01 ± 0.61. With LPLTARWEYMHSPSENSKEAEILE [CPOX], the protein stability index by setting is: under setting [1], 4.94 ± 0.32; under setting [2], 5.02 ± 0.17. On the same counts, the results for LPPPSAPSLQPSRKLSPTEPKNYG [SCAMP3] are 4.79 ± 0.16 and 4.86 ± 0.24. As for LPPVSTSFTTGGLRIPFPRDCGEE [TNXB], the protein stability index by setting is: under setting [1], 4.62 ± 0.27; under setting [2], 4.43 ± 0.18. The sequence LPVASSSTLLPLAPSNSTSLNSTF [NFE2L1] showed a protein stability index under setting [1] of 3.89 ± 0.11 and a protein stability index under setting [2] of 3.65 ± 0.24.

The sequence LPVYLKKDPAYFYGYVYFRQVRDK [DENND6A] registered a protein stability index under setting [1] of 2.59 ± 0.57 and a protein stability index under setting [2] of 2.53 ± 0.47. For LQKQGKYSGVGLLDHMVSIYLLI [RNF180], the protein stability index came out at 2.31 ± 0.92 under setting [3] and 2.88 ± 0.81 under setting [4].

With LQLFHQDGTFSPVTLALFFVLYFL [CLCN6], the protein stability index reads like this: under setting [1], 2.45 ± 0.64; under setting [2], 2.13 ± 0.47.
